B1: yNap1(74-417) (domain or fragment)
chain: LGSLVGQDSGYVGGLPKNVKEKLLSLKTLQSELFEVEKEFQVEMFELENKFLQKYKPIWEQRSRIISGQEQPKPEQIAKGQEIVESLNETELLVDEEEKAQNDSEEEQVKGIPSFWLTALENLPIVCDTITDRDAEVLEYLQDIGLEYLTDGRPGFKLLFRFDSSANPFFTNDILCKTYFYQKELGYSGDFIYDHAEGCEISWKDNAHNVTVDLEMRKQRNKTTKQVRTIEKITPIESFFNFFDPPKIQNEDQDEELEEDLEERLALDYSIGEQLKDKLIPRAVDWFTGAALEFEFEEDEEEADEDEDEEEDDDHGLEDDDGESAEEQDDFAGRPEQAPECKQS
B2: yNap1(74-365) (domain or fragment)
chain: LGSLVGQDSGYVGGLPKNVKEKLLSLKTLQSELFEVEKEFQVEMFELENKFLQKYKPIWEQRSRIISGQEQPKPEQIAKGQEIVESLNETELLVDEEEKAQNDSEEEQVKGIPSFWLTALENLPIVCDTITDRDAEVLEYLQDIGLEYLTDGRPGFKLLFRFDSSANPFFTNDILCKTYFYQKELGYSGDFIYDHAEGCEISWKDNAHNVTVDLEMRKQRNKTTKQVRTIEKITPIESFFNFFDPPKIQNEDQDEELEEDLEERLALDYSIGEQLKDKLIPRAVDWFTGAAL
B3: yNap1(1-365) (domain or fragment)
chain: MSDPIRTKPKSSMQIDNAPTPHNTPASVLNPSYLKNGNPVRAQAQEQDDKIGTINEEDILANQPLLLQSIQDRLGSLVGQDSGYVGGLPKNVKEKLLSLKTLQSELFEVEKEFQVEMFELENKFLQKYKPIWEQRSRIISGQEQPKPEQIAKGQEIVESLNETELLVDEEEKAQNDSEEEQVKGIPSFWLTALENLPIVCDTITDRDAEVLEYLQDIGLEYLTDGRPGFKLLFRFDSSANPFFTNDILCKTYFYQKELGYSGDFIYDHAEGCEISWKDNAHNVTVDLEMRKQRNKTTKQVRTIEKITPIESFFNFFDPPKIQNEDQDEELEEDLEERLALDYSIGEQLKDKLIPRAVDWFTGAAL

Here are results for three molecules from article PMC2583301.

In this test the target is H2A/H2B(T112C) dimer, H2B labelled with Alexa dye (Xenopus laevis) (UniProt P06897). In words: other fluorescence titration.
B1 registered a Kd of 1.7 nM and a Kd app (yNap1 counted as dimer) of 0.9 nM.
B2 yielded a Kd of 10 nM and a Kd app (yNap1 counted as dimer) of 5.4 nM.
On to B3, for which the Kd was 2.1 nM and the Kd app (yNap1 counted as dimer) is 1 nM.

As a reminder, the Kd is the free concentration of one partner at which half of the binding sites on the other are occupied at equilibrium, for simple one-to-one binding. High values mean a looser complex, low ones a tighter complex.
